In PMC9943670, “The homeodomain of Oct4 is a dimeric binder of methylated CpG elements”:

What was measured:
Brn2 POUS linker = target: T1, Brn2 POUS linker (mouse, UniProt P31360); test: EMSA; 50 nM DNA; EMSA buffer composition not given; 1 h at RT; gels in 1x TG, 200 V, 4 C; probes annealed in 20 mM Tris-HCl pH 8.0, 50 mM MgCl2, 50 mM KCl; protein stock 10 mM HEPES pH 7.0, 100 mM NaCl, 10% glycerol, 0.5 mM TCEP; conditions: protein: recombinant; tags: tag cleaved by TEV (leaves G); label: 5' Cy5 on forward strand; blunt
T1 sequence: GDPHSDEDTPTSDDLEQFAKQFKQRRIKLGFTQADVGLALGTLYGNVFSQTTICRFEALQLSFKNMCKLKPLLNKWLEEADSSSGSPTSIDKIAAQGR

Oct4 POU [1] = target: T2, Oct4 POU (mouse, UniProt P20263); test: EMSA; 1 nM DNA, 1-500 nM protein; nanomolar Kd, value only in figure; monomer; EMSA buffer composition not given; 1 h at RT; gels in 1x TG, 200 V, 4 C; probes annealed in 20 mM Tris-HCl pH 8.0, 50 mM MgCl2, 50 mM KCl; protein stock 10 mM HEPES pH 7.0, 100 mM NaCl, 10% glycerol, 0.5 mM TCEP; conditions: protein: recombinant; Methods: TEV-cleaved tag; label: 5' Cy5 on forward strand; blunt
T2 sequence (P20263 other isoform, or with tags, fused parts or gaps): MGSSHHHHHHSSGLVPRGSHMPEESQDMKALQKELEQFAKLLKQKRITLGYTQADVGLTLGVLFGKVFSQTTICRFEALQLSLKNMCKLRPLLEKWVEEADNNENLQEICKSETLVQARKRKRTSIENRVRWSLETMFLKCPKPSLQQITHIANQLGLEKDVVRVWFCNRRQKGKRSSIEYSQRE

Brn2 POU [2] = target: T3, Brn2 POU (mouse, UniProt P31360); test: EMSA; 1 nM DNA, 0.4-100 nM protein; nanomolar Kd, value only in figure; monomer; EMSA buffer composition not given; 1 h at RT; gels in 1x TG, 200 V, 4 C; probes annealed in 20 mM Tris-HCl pH 8.0, 50 mM MgCl2, 50 mM KCl; protein stock 10 mM HEPES pH 7.0, 100 mM NaCl, 10% glycerol, 0.5 mM TCEP; conditions: protein: recombinant; tags: tag cleaved by TEV (leaves G); label: 5' Cy5 on forward strand; blunt
T3 sequence: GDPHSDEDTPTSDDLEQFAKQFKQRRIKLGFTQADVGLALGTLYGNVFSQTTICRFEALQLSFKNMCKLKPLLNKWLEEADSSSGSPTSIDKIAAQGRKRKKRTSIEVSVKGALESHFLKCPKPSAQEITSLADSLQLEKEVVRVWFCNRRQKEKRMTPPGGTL

Oct4 POUHD [3] = target: T4, Oct4 POUHD (mouse, UniProt P20263); test: EMSA; 50 nM DNA; high affinity, homodimer also forms; EMSA buffer composition not given; 1 h at RT; gels in 1x TG, 200 V, 4 C; probes annealed in 20 mM Tris-HCl pH 8.0, 50 mM MgCl2, 50 mM KCl; protein stock 10 mM HEPES pH 7.0, 100 mM NaCl, 10% glycerol, 0.5 mM TCEP; conditions: protein: recombinant; tags: tag cleaved by TEV (leaves G); chain copies: 2; label: 5' Cy5 on forward strand; blunt
T4 sequence (P20263 other isoform, or with tags, fused parts or gaps): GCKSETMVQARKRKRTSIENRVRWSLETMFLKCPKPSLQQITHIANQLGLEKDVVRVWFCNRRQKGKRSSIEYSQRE

Brn2 POUHD [4] = target: T5, Brn2 POUHD (mouse, UniProt P31360); test: EMSA; 50 nM DNA; high affinity, no dimer detectable; EMSA buffer composition not given; 1 h at RT; gels in 1x TG, 200 V, 4 C; probes annealed in 20 mM Tris-HCl pH 8.0, 50 mM MgCl2, 50 mM KCl; protein stock 10 mM HEPES pH 7.0, 100 mM NaCl, 10% glycerol, 0.5 mM TCEP; conditions: protein: recombinant; tags: tag cleaved by TEV (leaves G); label: 5' Cy5 on forward strand; blunt
T5 sequence: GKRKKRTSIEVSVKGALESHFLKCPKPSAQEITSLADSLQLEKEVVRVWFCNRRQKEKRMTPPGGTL

Oct4 POU [5] = target: T2, Oct4 POU; test: EMSA; 50 nM DNA; homodimer, 5hmC no effect; EMSA buffer composition not given; 1 h at RT; gels in 1x TG, 200 V, 4 C; probes annealed in 20 mM Tris-HCl pH 8.0, 50 mM MgCl2, 50 mM KCl; protein stock 10 mM HEPES pH 7.0, 100 mM NaCl, 10% glycerol, 0.5 mM TCEP; conditions: protein: recombinant; Methods: TEV-cleaved tag; label: 5' Cy5 on forward strand; blunt
Oct4 POU [6] = target: T2, Oct4 POU; test: EMSA; 50 nM DNA, 25-800 nM protein; cooperative homodimer; EMSA buffer composition not given; 1 h at RT; gels in 1x TG, 200 V, 4 C; probes annealed in 20 mM Tris-HCl pH 8.0, 50 mM MgCl2, 50 mM KCl; protein stock 10 mM HEPES pH 7.0, 100 mM NaCl, 10% glycerol, 0.5 mM TCEP; conditions: protein: recombinant; Methods: TEV-cleaved tag; label: 5' Cy5 on forward strand; blunt
Oct4 POUHD [7] = target: T4, Oct4 POUHD; test: EMSA; 50 nM DNA; homodimer, minor effect of methylation; EMSA buffer composition not given; 1 h at RT; gels in 1x TG, 200 V, 4 C; probes annealed in 20 mM Tris-HCl pH 8.0, 50 mM MgCl2, 50 mM KCl; protein stock 10 mM HEPES pH 7.0, 100 mM NaCl, 10% glycerol, 0.5 mM TCEP; conditions: protein: recombinant; tags: tag cleaved by TEV (leaves G); chain copies: 2; label: 5' Cy5 on forward strand; blunt
Brn2 POUHD [8] = target: T5, Brn2 POUHD; test: EMSA; 50 nM DNA; dimer with strongly reduced cooperativity; EMSA buffer composition not given; 1 h at RT; gels in 1x TG, 200 V, 4 C; probes annealed in 20 mM Tris-HCl pH 8.0, 50 mM MgCl2, 50 mM KCl; protein stock 10 mM HEPES pH 7.0, 100 mM NaCl, 10% glycerol, 0.5 mM TCEP; conditions: protein: recombinant, tags: tag cleaved by TEV (leaves G), blunt
Oct4 POUHD [9] = target: T4, Oct4 POUHD; test: EMSA; 50 nM DNA; homodimer more efficient than full POU; EMSA buffer composition not given; 1 h at RT; gels in 1x TG, 200 V, 4 C; probes annealed in 20 mM Tris-HCl pH 8.0, 50 mM MgCl2, 50 mM KCl; protein stock 10 mM HEPES pH 7.0, 100 mM NaCl, 10% glycerol, 0.5 mM TCEP; conditions: protein: recombinant; tags: tag cleaved by TEV (leaves G); chain copies: 2; label: 5' Cy5 or FAM on forward strand; blunt
Oct4 POU [10] = target: T2, Oct4 POU; test: EMSA (single-tube dual color); FAM-CpGpal with Cy5-MORE; dimerizes more effectively on CpGpal than Brn2 does; EMSA buffer composition not given; 1 h at RT; gels in 1x TG, 200 V, 4 C; probes annealed in 20 mM Tris-HCl pH 8.0, 50 mM MgCl2, 50 mM KCl; protein stock 10 mM HEPES pH 7.0, 100 mM NaCl, 10% glycerol, 0.5 mM TCEP; conditions: protein: recombinant; Methods: TEV-cleaved tag; label: 5' Cy5 or FAM on forward strand; blunt
Brn2 POU [11] = target: T3, Brn2 POU; test: X-ray crystallography; 1.89 A; homodimer; 0.2 M MgCl2, pH 5.0; EMSA buffer composition not given; 1 h at RT; gels in 1x TG, 200 V, 4 C; probes annealed in 20 mM Tris-HCl pH 8.0, 50 mM MgCl2, 50 mM KCl; protein stock 10 mM HEPES pH 7.0, 100 mM NaCl, 10% glycerol, 0.5 mM TCEP; conditions: protein: recombinant; tags: tag cleaved by TEV (leaves G); blunt; self-complementary strand, 2 copies
Brn2 POU [12] = target: T3, Brn2 POU; test: EMSA (single-tube dual color); Cy5-MORE with FAM-CpGpal; preferred, dimer; EMSA buffer composition not given; 1 h at RT; gels in 1x TG, 200 V, 4 C; probes annealed in 20 mM Tris-HCl pH 8.0, 50 mM MgCl2, 50 mM KCl; protein stock 10 mM HEPES pH 7.0, 100 mM NaCl, 10% glycerol, 0.5 mM TCEP; conditions: protein: recombinant; tags: tag cleaved by TEV (leaves G); label: 5' Cy5 on one strand; blunt; self-complementary strand, 2 copies

B1: Octamer (dsDNA)
DNA 1: GGCGGCGGATGCAAATCGGCGGCGG
DNA 2: CCGCCGCCGATTTGCATCCGCCGCC
binding result (Brn2 POUS linker): no binding | binding result (Oct4 POU [1]): binds | binding result (Brn2 POU [2]): binds | binding result (Oct4 POUHD [3]): binds | binding result (Brn2 POUHD [4]): binds

B2: CpGpal 5hmC (dsDNA)
DNA 1: GCCGCCTTATGCGCATAAGCCGCCGC
DNA 2: GCGGCGGCTTATGCGCATAAGGCGGC
modifications: 5hmC at the central CpG; strands carrying the mark not given
binding result (Oct4 POU [5]): binds

B3: CpGpal unmethylated (dsDNA)
DNA 1: GCCGCCTTATGCGCATAAGCCGCCGC
DNA 2: GCGGCGGCTTATGCGCATAAGGCGGC
binding result (Oct4 POU [6]): binds | binding result (Oct4 POUHD [7]): binds | binding result (Brn2 POUHD [8]; label: 5' Cy5 on forward strand): binds

B4: CpGpal fully methylated (dsDNA)
DNA 1: GCCGCCTTATGCGCATAAGCCGCCGC
DNA 2: GCGGCGGCTTATGCGCATAAGGCGGC
modifications: 5mC at the central CpG (ATG5mCGCAT), both strands
binding result (Oct4 POUHD [9]): binds | binding result (Oct4 POU [10]): binds | binding result (Brn2 POUHD [8]; label: 5' Cy5 or FAM on forward strand): binds

B5: MORE (crystal) (dsDNA)
DNA 1: TCCTCATGCATATGCATGAGGA
DNA 2: TCCTCATGCATATGCATGAGGA
binding result (Brn2 POU [11]): binds

B6: MORE (dsDNA)
DNA 1: TCCTCATGCATATGCATGAGGA
DNA 2: TCCTCATGCATATGCATGAGGA
binding result (Brn2 POU [12]): binds
